Laboratory results taken from the nanobody polyreactivity screen of Harvey et al. (2022).

Assay: yeast display, Sf9 membrane polyspecificity reagent, FACS + sequencing; frameworks hold sequencing errors
Summary of the method: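 A nanobody's polyreactivity label depends on the gate it was sorted from. Yeast display cells were stained with 10% biotinylated, detergent-solubilized Sf9 membrane reagent for 1 hour at 4 °C, enriched on streptavidin microbeads and sorted by FACS. The low and high (top ~1%) gates were set on anti-HA fluorescence for expression and streptavidin fluorescence for reagent binding.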

Sequence	polyreactivity (PSR sort gate)
QVQLVESGGGLVQAGGSLRLSCAASGRTISYAMGWYRQAPGKEREMVAAIRYRGGSTYYADSVKGRFTISRDNAKNTVYLQMNSLKPEDTAVYYCAAQDSYTPPILFRRGYLRYDYWGQGTQVTVSS	low polyreactivity
QVQLVESGGGLVQAGGSLRLSCAASGRTITRNALGWYRQAPGKERELVASINRGGSTNYADSVKGRFTISRDNAKNTDYLQMNSLNPEDTAVYYCYYHVYEQYFWVEYDYWGQGTQVTVSS	high polyreactivity
QVQLVESGGGLVQAGGSLRLSCAASGRTITRNAMGWYRQAPGKERELVAAITTTGGSTYYADYVKGRFTISRDNAKNTVYLQMNSLKPEDNAVYYCNADWVGPFRRATNITTYFGYDYWGQGTQVTVSS	low polyreactivity
QVQLVESGGGLVQAGGSLRLSCAASGRTIVRYAMGWYRQAPGKERDLVAAITARGGSTYYADSVKGRFTISRDNAKNTVYLQMNRLKPEDTEVYYCATYYSGSLGRYYYWGKGTQVTVSS	high polyreactivity
QVQLVESGGGLVQAGGSLRLSCAASGRTIVVYGMGWYRQAPGKERELVATINYGGNTYYADSVKGRFTISRDNAKNTVYLQLNSLKPEDTAVYYCATRSYARYYTYDYWGQGTQVTVSS	low polyreactivity
QVQLVESGGGLVQAGGSLRLSCAASGRTIWWYAMGWYRQAPGKERELVAAITWIGGSTYYADSVKGRFTISRDNAKNTVYLKMNSLKPEDTAVYFCNVVYYGRTWVPYEWEYDYWGQGTQVTVSS	low polyreactivity
QVQLVESGGGLVQAGGSLRLSCAASGRTIYLNAMGWYRQAPGKERELVAAISRNGGSTYYADSVKGRFTISRDNAKNTVYLQMNSLKPEDTAVYYCAAEWDDGRSWYWYYLVGFEYWGQGTQVTVSS	high polyreactivity
QVQLVESGGGLVQAGGSLRLSCAASGRTIYRYAMGWYRQAPGKERELVAAISRRGGSTYYADSVKGRFTISRDNAKNTVYLHMNSLKPEDSAVYYCNAPFGDVYRTDDYWGQGTQVTVSS	high polyreactivity
QVQLVESGGGLVQAGGSLRLSCAASGRTIYSNAMGGYRQAPGKERELVAAITGSSGSTYYADSVKGRFTISRDNAKNTVYLQMNSLKPEDTAVYYCAASCYCSLVRQLRLRGQGTQVTVSS	low polyreactivity
QVQLVESGGGLVQAGGSLRLSCAASGRTIYYNGMGWDRQAPGKERELVAAITSGGTTSYADSVKGRFTISRDNAKNTVYLQMNSLKPEDTAVYYCARVTDGVVYEYDYWGQGTQVTVSS	low polyreactivity
QVQLVESGGGLVQAGGSLRLSCAASGRTIYYYAMGWYRQAPGKERELVAAINYGSGGSTYYADSVKGRFTISRDNAKNTVYLQMNSLKPEDTAVYYCNARRQDWPRKAYGYWGQGTQVTVSS	high polyreactivity
QVQLVESGGGLVQAGGSLRLSCAASGRTIYYYAMGWYRQAPGKERELVAAITSGGSTYYADSVKGRFTISRDNEKNTVYLQMNSLKPEDTAVYYCAARPLEGWHYGSWGQGTQVTVSS	low polyreactivity
QVQLVESGGGLVQAGGSLRLSCAASGRTLAPYAMGWYRQAPGKERELVAISTIGGSTYYADSVKGRFTISRDNAKNTVFLQMNSLKPEDTAVYYCNADATDSYPEKDEHDSWGQGTQVTVSS	low polyreactivity
QVQLVESGGGLVQAGGSLRLSCAASGRTLARNAMGWDIQGPGKERELVASINGRTTRTYYADSVKGRFTISRDNAKNTVYLQMNSLKPEDTAVYYCAAERKNKYDYWGQGTQVTVSS	high polyreactivity
QVQLVESGGGLVQAGGSLRLSCAASGRTLASNAMGWYRQAPGKERELVAAINRGGSTYYADSVKGRFTISRDNAKNTVYLQMNSLKPEDTAVYSCAVDRYRYPFDYWGQGTQVTVSS	low polyreactivity
QVQLVESGGGLVQAGGSLRLSCAASGRTLFPNVMGWYRQAPRQERELFAAITTIGGSTYYADSVKGRITISRDNAKNTVFLQMNSLKPEDTEVYYCNARYRGRGLKFGYWGQGTQVTVSS	high polyreactivity
QVQLVESGGGLVQAGGSLRLSCAASGRTLFYYTMGWYRQAPGKERELVAAISSGDSTNYADSVKGRFTISRDNAKNTVYLQMNSLQPEDTAVYYCATQYLLDYKKTYRTYYSPYDYWGQGTQVTVSS	low polyreactivity
QVQLVESGGGLVQAGGSLRLSCAASGRTLGGNAMGWYRQAPGKERELVAAITNSASTYADSVKGRFTISRDNAKNSVYLQMNSLKPEDTAVYYCNAPVPSDQHGDYWGQGTQVTVSS	low polyreactivity
QVQLVESGGGLVQAGGSLRLSCAASGRTLGGYAMGWYRQAPGKERELVASITARGGSTYYADSVKGRFTISRDNAKNTVYLQMNSLKPEDTAVYYCNKRTRRTYDYWGQGTQVTVSS	high polyreactivity
QVQLVESGGGLVQAGGSLRLSCAASGRTLGGYAMGWYRQAPRKERELVAVITWNGGSTYADSVKGRFTISRDNAKNTVYLQMNSLKPVDTAVYYCAARQAYYAAFRTRYGYWGQGTQVTVSS	high polyreactivity
QVQLVESGGGLVQAGGSLRLSCAASGRTLGGYTMGWYRQAPGKERELVAAITTGGSTNYADSVKGRFTISRDNAKNTVYLQMNSLKPEDTAVYYCATELVFDKRYWYDYWGQGTQVTVSS	low polyreactivity
QVQLVESGGGLVQAGGSLRLSCAASGRTLGIYAMGWYRQAPGKERELVADISRDSSTYYADSVKGRFTISRDNAKNTVYLQKNSLKPEDTAVYYCNADQTPRDVTDWWYDYDYWGQGSQVTVSS	low polyreactivity

Sequence	polyreactivity (PSR sort gate)
QVQLVESGGGLVQAGGSLRLSCAASGRTLGKNAMGWYRQAPGKEREFVAAISRSGSRTYYADSVKGRFTISRDNEKYTVYLQMNSLKPEDTAVYYCAADGSGHSQRYDYWGQGTQVTVSS	high polyreactivity
QVQLVESGGGLVQAGGSLRLSCAASGRTLGKYAMGWYRQAPGKERELVAAIRWTGGNTYYADSVKGRFTISRDNAKNTVYLQMNSLKPEDTAVYYCAAAYWNDWSQYDYWGQGTQVTVSS	high polyreactivity
QVQLVESGGGLVQAGGSLRLSCAASGRTLGRNAMGWYRHAPGKERELVARISYSGGRTYYADSVKGRFTISRDNAKNTVYLQMNSLKPEDTAVYYCATLGIVHQYDYWGQGTQVTVSS	low polyreactivity
QVQLVESGGGLVQAGGSLRLSCAASGRTLGTNAMGWYRQAPGKERELVAAITRNGGSTYYADSVKGRFTISRDNAKNTVYLQMNSLKPEDTAVYYCAARYFHSVGGWPVSYRYNYWGQGTQVTVSS	high polyreactivity
QVQLVESGGGLVQAGGSLRLSCAASGRTLGVNAMGWYRQAPGKERELVAAISTRGTTTNYADSVKGRFTISRDNAKNTVYLQMNSLKPEDTAVYYCATRTYRTYPRYDYWGQGTQVTVSS	high polyreactivity
QVQLVESGGGLVQAGGSLRLSCAASGRTLGYNAVGWYRQAPGKERELVAAINGGDSTYADSVKGRFTISRDNAKNTVYLQMNSLKPEDTAVYYCNALRGGPFRWHGYYYWGQGTQVTVSS	low polyreactivity
QVQLVESGGGLVQAGGSLRLSCAASGRTLHDYTMGWYRQAPGKERELVAGITSGGRTNYADSVKGRFTISRDNAKNTVYLQMNSLKPEDTAVYYCAAAWTWWRLYADDYWGQGTQVTVSS	high polyreactivity
QVQLVESGGGLVQAGGSLRLSCAASGRTLIHYAMGWYRQAPGKERELVATINIGGRTYADSVKGRFTISRDNAKNTVYLQMNSLKPEDTAVYYCAADHRYSARRSVPTLYDYWGQGTQVTVSS	low polyreactivity
QVQLVESGGGLVQAGGSLRLSCAASGRTLKYNAMGWYIQAPGKERELVAGISWSGTRTYYADSVKGRFTISRDIAKNTVYLQMNSLKPEETAVYYCAAYSYLYRSSGFRYNYWGQGTPVTVSS	high polyreactivity
QVQLVESGGGLVQAGGSLRLSCAASGRTLLQYTKGWYRQAPGKERELGAAISWSGGRTYYADSVKGRFTISRDNAKNTVYLQMNSLKPEDTAVYYCAARGLKSQYYGAKHEYGYWGLGTQVTVSS	high polyreactivity
QVQLVESGGGLVQAGGSLRLSCAASGRTLNRNAMGWYRQAPGKERELVAAISRRGGSTNYADSVKGRFTISRDNAKNTVYLQMNSLKPEDTAVYYCARVTTVYDGRGFVDVKRGYWGQGTQVTVSS	high polyreactivity
QVQLVESGGGLVQAGGSLRLSCAASGRTLPEYVMGWYRQAPGKERELVAAITTAGSTNYADSVKGRFTISRDNAKNTVYLQMNSLKPEDTAVYYCNAYPASRGPGNPLDDYWGQGTQVTVSS	low polyreactivity
QVQLVESGGGLVQAGGSLRLSCAASGRTLPKYVMGWYRQAPGKERELVAAISSSGDSTYYADSVKGRFTISRDNAKNTVYLQMNSLKPEDTAVYYCGKYDLNTYGYWGQGTQVTVSS	low polyreactivity
QVQLVESGGGLVQAGGSLRLSCAASGRTLPSNTMGWYRQAPGTERELVAAISKNGGSTYYADSVKGRFTISRDNAMNTVYLQMNSLKPEDTAVYYCNARYLYGRYRSPLDDYWGQGTQVTVSS	high polyreactivity
QVQLVESGGGLVQAGGSLRLSCAASGRTLPYYMRWYRQAPGKERELVAAITNGDSTYYADSVKGRFTISRDNAQNTVYLQMNSLKPEDTAVYDCAARQKVPPQYWGQGTQVTVSS	high polyreactivity
QVQLVESGGGLVQAGGSLRLSCAASGRTLQGYAMGWYRQEPGKERELVAAISRGGGSTYADSVKGRFTISRDNAKNTVYLQMNSLKPEDTAVYYCNKKSYYRYYWGQGTQVTVSS	high polyreactivity
QVQLVESGGGLVQAGGSLRLSCAASGRTLQIYVMGWYRQAPGKERELVASITGRGGSTYYADSVKGRFTISRDTAKNTVYLQMNSLKPEDTAVYYFARRYYRLDYWGQGTQVTVSS	high polyreactivity
QVQLVESGGGLVQAGGSLRLSCAASGRTLRAYAMGWYRQAPGKERELVAAITWSGGSTYYADSVKGRFTISRDTAKNTVYLQMNSLKPEDTAVYYCNARSYPDLYDYWGQGTQVTVSS	low polyreactivity
QVQLVESGGGLVQAGGSLRLSCAASGRTLRGYAMGWYRQAPGKERELVARITGSGGSTYADSVKGRFTISRDNAKNTVYLQMNSLKPEDTAVYYCAAGYSIYYYYAYTISRVSYDYWGQGTQVTVSS	high polyreactivity
QVQLVESGGGLVQAGGSLRLSCAASGRTLRINAMGWYRQAPGKERELVAAISRSGGRTYYADSVKGRFTISRDNAKNTVYLQRNSLKPEDTAVYYCATGGVAYNYGWGQYYYWGQGTQVTVSS	high polyreactivity
QVQLVESGGGLVQAGGSLRLSCAASGRTLRIYAMGWYRPAPGNERELVAAITGSGGSTDYADSVKGRFTISRDNAKNTVYLQMNILKPEDTAVYYCNAGKTIDYRDGVGYDHWGQGTQVTVSS	low polyreactivity
